Measured values as given in the supplement of paper PMC7125110.
± gives the standard error. Fewer inactive variants are shown than the library holds.

B1: glmS ribozyme (parent)
chain: AUAAAAGCGCCAGAACUACAGAAAUGUAGUUGACGAGGAGGAGGUUUAUCGAAUUUUCGGCGGAUGCCUCCAAA

Columns and labels:
Conditions in all cases: with glucosamine-6-phosphate
[1] = variants of: B1; assay: self-cleavage kobs at 40 uM GlcN6P; higher = faster cleavage; RNA array
In short: (§1)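 Barcoded ribozyme variants, transcribed in situ by E. coli RNA polymerase on sequenced MiSeq chips, were followed via a hybridised Cy3 probe at 37 °C. Glucosamine-6-phosphate ranged from 40 μM to 10 mM in HEPES/KCl/Mg(OAc)2 buffer. kobs came from decay fits to per-tile medians, and kcat and KM from weighted Michaelis–Menten fits.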

[2] = variants of: B1; assay: self-cleavage kobs at 640 uM GlcN6P; higher = faster cleavage; RNA array
In short: as §1

[3] = variants of: B1; assay: self-cleavage kobs at 2500 uM GlcN6P; higher = faster cleavage; RNA array
In short: as §1

[4] = variants of: B1; assay: self-cleavage kobs at 10000 uM GlcN6P; higher = faster cleavage; RNA array
In short: as §1

[5] = variants of: B1; assay: self-cleavage kobs at 160 uM GlcN6P; higher = faster cleavage; RNA array
In short: as §1

| Variant | self-cleavage kobs at 40 uM GlcN6P [1] | self-cleavage kobs at 640 uM GlcN6P [2] | self-cleavage kobs at 2500 uM GlcN6P [3] | self-cleavage kobs at 10000 uM GlcN6P [4] | self-cleavage kobs at 160 uM GlcN6P [5] |
| --- | --- | --- | --- | --- | --- |
| A39G U47C | 0.000381 ± 6e-05 s⁻¹ | 0.00353 ± 0.0012 s⁻¹ | 0.00728 ± 0.0026 s⁻¹ | 0.0217 ± 0.0054 s⁻¹ | – |
| C50U C58U | < 1e-05 s⁻¹ | < 1e-05 s⁻¹ | – | < 1e-05 s⁻¹ | – |
| A12U A36U G44A | < 1e-05 s⁻¹ | – | – | – | – |
| C8U G62A | < 1e-05 s⁻¹ | – | – | 7.26e-05 ± 1.2e-05 s⁻¹ | < 1e-05 s⁻¹ |
| G51C A52U | < 1e-05 s⁻¹ | < 1e-05 s⁻¹ | – | < 1e-05 s⁻¹ | – |
| A12C G29U | 0.000186 ± 2.6e-05 s⁻¹ | 0.00225 ± 0.00065 s⁻¹ | 0.00483 ± 0.0017 s⁻¹ | 0.031 ± 0.014 s⁻¹ | 0.000725 ± 0.00022 s⁻¹ |
| G29U U46G C58G C67A | 4.15e-05 ± 1.9e-05 s⁻¹ | – | – | 5.63e-05 ± 1.4e-05 s⁻¹ | – |
| G7C C67U | < 1e-05 s⁻¹ | < 1e-05 s⁻¹ | < 1e-05 s⁻¹ | < 1e-05 s⁻¹ | < 1e-05 s⁻¹ |
| G7C A64G | < 1e-05 s⁻¹ | < 1e-05 s⁻¹ | < 1e-05 s⁻¹ | – | < 1e-05 s⁻¹ |
| C34A C61U C67U | < 1e-05 s⁻¹ | – | – | < 1e-05 s⁻¹ | – |
| U46A G51C | < 1e-05 s⁻¹ | < 1e-05 s⁻¹ | < 1e-05 s⁻¹ | < 1e-05 s⁻¹ | – |
| G35C C61G C68G | 7.74e-05 ± 3e-05 s⁻¹ | – | – | – | – |
| C10A U30G A39U C67A | < 1e-05 s⁻¹ | – | – | – | – |
| G35U C50G | 3.53e-05 ± 1.5e-05 s⁻¹ | – | 0.000141 ± 3.9e-05 s⁻¹ | – | 9.05e-05 ± 2.7e-05 s⁻¹ |
| A12G G63A A64U | < 1e-05 s⁻¹ | – | < 1e-05 s⁻¹ | – | < 1e-05 s⁻¹ |
| G51C C58A C70A | < 1e-05 s⁻¹ | – | – | – | – |
| A33C G37C | < 1e-05 s⁻¹ | < 1e-05 s⁻¹ | < 1e-05 s⁻¹ | – | – |
| G35A C67A | < 1e-05 s⁻¹ | < 1e-05 s⁻¹ | < 1e-05 s⁻¹ | – | < 1e-05 s⁻¹ |
| G7U C10G A15C G37C | < 1e-05 s⁻¹ | – | – | – | – |
| C11A C68A | < 1e-05 s⁻¹ | – | – | – | – |
| C10G U55G | < 1e-05 s⁻¹ | – | – | – | – |
| G32C G41A A52C | < 1e-05 s⁻¹ | – | < 1e-05 s⁻¹ | – | < 1e-05 s⁻¹ |
| A15G G63C | < 1e-05 s⁻¹ | < 1e-05 s⁻¹ | < 1e-05 s⁻¹ | < 1e-05 s⁻¹ | < 1e-05 s⁻¹ |
| A15C A33C A64U | < 1e-05 s⁻¹ | – | – | < 1e-05 s⁻¹ | – |

| Variant | self-cleavage kobs at 40 uM GlcN6P [1] | self-cleavage kobs at 640 uM GlcN6P [2] | self-cleavage kobs at 2500 uM GlcN6P [3] | self-cleavage kobs at 10000 uM GlcN6P [4] | self-cleavage kobs at 160 uM GlcN6P [5] |
| --- | --- | --- | --- | --- | --- |
| G13C A36C U46G C68A | < 1e-05 s⁻¹ | – | – | < 1e-05 s⁻¹ | – |
| G29U G51C | < 1e-05 s⁻¹ | < 1e-05 s⁻¹ | – | < 1e-05 s⁻¹ | – |
| U56C G59C C68G | < 1e-05 s⁻¹ | – | – | < 1e-05 s⁻¹ | – |
| C8A C67G | < 1e-05 s⁻¹ | < 1e-05 s⁻¹ | < 1e-05 s⁻¹ | < 1e-05 s⁻¹ | < 1e-05 s⁻¹ |
| A12U G29A | 0.00084 ± 0.00025 s⁻¹ | 0.00253 ± 0.00054 s⁻¹ | 0.00409 ± 0.0011 s⁻¹ | 0.041 ± 0.012 s⁻¹ | 0.000905 ± 0.0002 s⁻¹ |
| G7U C10U G13C A52G | < 1e-05 s⁻¹ | – | – | – | – |
| G63U G66U | < 1e-05 s⁻¹ | < 1e-05 s⁻¹ | < 1e-05 s⁻¹ | < 1e-05 s⁻¹ | – |
| C34A | < 1e-05 s⁻¹ | < 1e-05 s⁻¹ | < 1e-05 s⁻¹ | – | < 1e-05 s⁻¹ |
| G41A G62U C67G | < 1e-05 s⁻¹ | – | – | – | – |
| U56C G62U | < 1e-05 s⁻¹ | – | – | < 1e-05 s⁻¹ | – |
| G13C U57G | < 1e-05 s⁻¹ | – | – | – | – |
| G7A G9C C16G | < 1e-05 s⁻¹ | < 1e-05 s⁻¹ | – | < 1e-05 s⁻¹ | < 1e-05 s⁻¹ |
| C10G G41C | < 1e-05 s⁻¹ | < 1e-05 s⁻¹ | < 1e-05 s⁻¹ | < 1e-05 s⁻¹ | < 1e-05 s⁻¹ |
| A12C A42U C58U | < 1e-05 s⁻¹ | – | – | – | – |
| C10U C16U U47C U65C | < 1e-05 s⁻¹ | – | – | – | – |
| U55G U56G G62C | < 1e-05 s⁻¹ | – | – | < 1e-05 s⁻¹ | – |
| C10U A36G C71G | < 1e-05 s⁻¹ | – | – | < 1e-05 s⁻¹ | – |
| G37U A48U C68A | < 1e-05 s⁻¹ | – | – | < 1e-05 s⁻¹ | – |
| G40C C68A | < 1e-05 s⁻¹ | < 1e-05 s⁻¹ | < 1e-05 s⁻¹ | < 1e-05 s⁻¹ | < 1e-05 s⁻¹ |
| A52C G60U | < 1e-05 s⁻¹ | – | – | < 1e-05 s⁻¹ | – |
| U45C G60U | < 1e-05 s⁻¹ | < 1e-05 s⁻¹ | – | < 1e-05 s⁻¹ | < 1e-05 s⁻¹ |
| C34A G40U G66A | < 1e-05 s⁻¹ | – | – | < 1e-05 s⁻¹ | < 1e-05 s⁻¹ |
| C11A A48U A52U | < 1e-05 s⁻¹ | – | – | < 1e-05 s⁻¹ | – |
| U45G G63U A64C | < 1e-05 s⁻¹ | < 1e-05 s⁻¹ | – | – | – |
